According to the RNAGym collection of RNA variant scans (doi:10.1073/pnas.2313332121):

B1: TPR t1 (parent)
chain: GACCAAUCUGCCCUCAGAGCUCGAGAACAUCUUCGGAUGCAGAGGAGGCAGGCUUCGGUGGCGCGAUAGCGCCAACGUCCUCAACCUCCAAUGCAUCCCACCACAUGAUGAUGCCUGAAGAGCCUUGGUUUUUUG

Variants of: B1
Assay: polymerase ribozyme fitness, log enrichment relative to wild type (log ratio); higher = more active; in vitro selection for triplet polymerase activity
Outline: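 For each subunit of a heterodimeric triplet polymerase ribozyme, a mutant library was built by PCR and transcribed, then taken through a single in vitro selection round in triplicate. Selection involved annealing to a biotinylated primer, the partner subunit and triplets, incubation frozen at −7 °C, gel excision of extended constructs, capture on streptavidin beads and RT-PCR. Genotypes were retained after Illumina sequencing of inputs and outputs only with ≥10 input reads and ≥1 read in each output. Fitness is defined as the logarithm of a genotype's enrichment relative to wild-type enrichment, using inverse-variance-weighted averages across replicates, with the logarithm taken to base 2.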

Row | Variant | polymerase ribozyme fitness (log ratio)
1 | A5C C8G A37U U38C A43C G57A G110A C124U | -5.51
2 | U7C C8G C53G C101A | -0.517
3 | C79U G120U | 0.0692
4 | U33C G60A | -4.87
5 | G17C G69U G122A | -2.46
6 | G52A C72U C85G | -2.39
7 | C11G G71U | 0.0897
8 | G47U A50U U54A | -2.42
9 | C3U C28A U112A | -2.92
10 | C11U C15A A26G C53G G63U G120C | -4.53
11 | C15A A27C U55G | -5.9
12 | G63U C70A | -0.179
13 | C3A A5C C115A | 1.15
14 | G77A G120A G128C | -2.08
15 | A26U C124U | -2.17
16 | A6U C8G C13U C20U G51A G61U | -4.27
17 | G51C G52C | -2.79
18 | U38G C40U | -1.03
19 | C12U A46G C62A U67C U112A U129G | -4.48
20 | C22U U55G U106A | -3.56
21 | G45A G52C | -1.37
22 | A41G A90G | 0.631
23 | C11G A37C G61U | -0.241
24 | C11U C56U G128C | -3.11

Row | Variant | polymerase ribozyme fitness (log ratio)
25 | C31U U112G | -4.94
26 | U14G G60C C70U | -3.06
27 | C31U C72G | -4.16
28 | C49U A121C | 1.39
29 | A6U C28G G58A A100U | -3.49
30 | C22U G120C | -2.63
31 | C13U G42U G61A A90U A95U | -1.48
32 | C13U G45U G117U | -2.03
33 | U78G C94G | -0.85
34 | G42U C49A U81G | -5.58
35 | C49U G52A C73G A121U | -1.14
36 | C79U C104A | -2.22
37 | A5C G61A | -0.269
38 | U109A G135U | -4.82
39 | C13U C56G G58C | -0.174
40 | G36U G39C C124G | -0.0867
41 | G17U C70U U78G | -3.17
42 | C12U U14A G110U G113A U130C | -4.17
43 | A16G A41U G60U C86G C124G | -2.13
44 | C15G C49G C89U C115G | -4.39
45 | C11A C56U A105U | -3.49
46 | U55C U125A | -1.11
47 | C4G G10U A18G U59G A83C U87A | -4.53
48 | C15A G36A A50C G65A G69U | -7.38

Row | Variant | polymerase ribozyme fitness (log ratio)
49 | A29U G61U U106G | -1.91
50 | A6C C15U | -1.98
51 | C20U G135U | -1.97
52 | U9A C20U G71U A91C G107A G117A | -6.01
53 | C13U G17U C49U A50C | -2.06
54 | G42U G71U | -2.08
55 | G45A G110A | -1.34
56 | C102A G113A | -2.68
57 | U14A G61A | -1.88
58 | C11G G52U C56G C102U A103C | -6.01
59 | G61C U78A U116G | -1.8
60 | U9C C13A C102U A111C | -0.646
61 | C56G G117U | -2.83
62 | A6U C22G A26U C104U | -4.49
63 | G10U U59C A95U C102U | -3.58
64 | C3A C28U G57A G69U C82U | -3.79
65 | C11U C72U A83U C101G | -1.79
66 | C15U C72U | -1.62
67 | C3A C72U C94G | -3.51
68 | G48U G60C C70U U78G | -5.9
69 | C114U A118G | -2.12
70 | C13G A41U C97U | -3.81
71 | G39U U55A G71A C94G C102A G113U | -5.82
72 | G61A C124A | 1.79

Row | Variant | polymerase ribozyme fitness (log ratio)
73 | G44A G48C A74U | -2.22
74 | C34G C49U C97U C114G | -7.24
75 | A16G G42U C49A C56U G61A U96G U109G U134A | -5.05
76 | C11G C76U G120A | 2.23
77 | A27C U87A A91G | -4.73
78 | G71A C89U | -0.978
79 | U92C C99G G113U | -6.05
80 | C13G C15U G69A C114U | -6.44
81 | C20U G42A A91C | -4.6
82 | C8A G69C | -1.13
83 | G77U A105G | -2.9
84 | U38C A46U A100C | -4.28
85 | C20A G35U | -5.42
86 | C12A G60C U106G | -2.28
87 | G57U U129C | -1.6
88 | U112G U116A G117U A121G | 0.651
89 | C12A G17U U96A G120U | -1.6
90 | G36A G71U | -0.815
91 | C56G C89A A105G C114U | -5.42
92 | A91G C104U A118C C123G C124A U126A | -0.422
93 | A46C G52U C88A G110A A118G U126C | -3.39
94 | A2C G69A C114A | -4.75
95 | C40A C72A | -0.912
96 | A6C C53A G69C G120A | -1.04

Row | Variant | polymerase ribozyme fitness (log ratio)
97 | U7A C56G C101U | 0.801
98 | U9G A27U | -3.6
99 | C85G U112C | 0.41
100 | G47A G120C | 0.156
101 | A50G C79G U87G | -0.314
102 | C8U G35A | -3.11
103 | A66U C80A | -5.71
104 | C53A C79U C94G C101A | -1.64
105 | C72U U112A | 0.821
106 | A26U U54G U78C C89U | -5.2
107 | A50U C85U G120C U130A | -0.66
108 | C4U C97G | -3.97
109 | G63C A91U C114A A118G U132A | -4.5
110 | C53G C86A A118G | -1.38
111 | C4A A95U | -1.38
112 | C11U C15U | -2.2
113 | C12A C64U A90C | -2.08
114 | C8G G107U G113A | -3.41
115 | C12G A46C G60U U109C | -6.49
116 | C12U A84U U131G | -0.996
117 | C49G G63A U78A C99A | -8.17
118 | C12G G69C C72U A90U U116G | -6.29
119 | G19U A41C U92A C94U C115U U133G | -5.87
120 | C70G G117A | -3.54

Row | Variant | polymerase ribozyme fitness (log ratio)
121 | C11A U133A | -2.64
122 | A2U C104A C124U U130A | -2.07
123 | G63A A66G | -1.9
124 | A103U C123U | -3.47
125 | G51A A74C | -4.63
126 | C72G C101G | -1.33
127 | C40A A43G C56G G135U | -4.41
128 | C11G G36U A43U G61A G63A C115U U125A U132A | -6.45
129 | C56U C72U C80U A90C | -2.11
130 | U32G A37U C73U G113A | -6.09
131 | G17U G39U C88U A91C G117U | -3.62
132 | U32C G47U G48U C76U U112G | -4.6
133 | G63U C101A | -2.28
134 | C15G C49G U106C C124U | -2.11
135 | G39A G71A C86A A100C | -4
136 | C3U G69U A105G G117C | -4.98
137 | A2G C28U C70U G110U | -3.19
138 | G44U A118U | -0.733
139 | G35U A74G C89U C115A | -6.17
140 | G17U C88A | -2.77
141 | U9G U38G U55C | -0.21
142 | A83C C86G | -1.46
143 | C11G C28G G60A A68C U81A U106C G127C | -6.42
144 | G60C C124G | 0.305

Row | Variant | polymerase ribozyme fitness (log ratio)
145 | C8U G36U G39A G48U C72A U106A | -1.69
146 | C94U A108U C124A | -4.49
147 | G52U U130C | -0.807
148 | C3U C11U | -0.785
149 | C88U C89A C115U G117C U126A | -3.5
150 | A27G G57U | -2.3
151 | C49U U55G | -0.735
152 | C13G C53G C72U | -1.34
153 | G10A C49A U78C U116A G120U | -0.56
154 | U32C G60A C97A C124U U131A | -4.71
155 | C12U A16U A66C A105C C124G | -5.31
156 | C8U C20U U78C C82G C123U | 0.246
157 | A5C C64U | -0.365
158 | C49U U96C C124A | 1.03
159 | A2U C79U C104A | -4.26
160 | A27G C86U | -2.44
161 | C76G U87G | -0.0658
162 | C8G U54G | 0.644
163 | G48C C101U U112C | 0.0907
164 | C3U C11U C13G U116C | -4.66
165 | G69C C98U | -1.79
166 | A27C A43G | -5.95
167 | G48C G69U U130C | -0.222
